T1: Xenopus Geminin-H, translated in vitro
T1 sequence: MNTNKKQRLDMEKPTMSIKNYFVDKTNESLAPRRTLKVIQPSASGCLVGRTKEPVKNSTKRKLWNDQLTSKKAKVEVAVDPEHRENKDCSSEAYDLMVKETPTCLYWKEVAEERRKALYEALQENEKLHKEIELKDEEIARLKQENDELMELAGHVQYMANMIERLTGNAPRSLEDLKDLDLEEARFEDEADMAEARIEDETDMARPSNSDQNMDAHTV

T2: geminin^DEL (geminin H with the nine amino acids of the destruction box RRTLKVIQP, 33-41, removed), translated in vitro
T2 sequence: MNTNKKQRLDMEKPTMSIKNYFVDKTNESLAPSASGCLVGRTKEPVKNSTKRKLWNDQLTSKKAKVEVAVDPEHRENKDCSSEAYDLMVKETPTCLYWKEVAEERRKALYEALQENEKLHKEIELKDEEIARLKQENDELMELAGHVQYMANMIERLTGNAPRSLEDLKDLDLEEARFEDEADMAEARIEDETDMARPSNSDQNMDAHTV

T3: Xorc2 (Xenopus, UniProt Q91628 1-558)
T3 sequence (looked up): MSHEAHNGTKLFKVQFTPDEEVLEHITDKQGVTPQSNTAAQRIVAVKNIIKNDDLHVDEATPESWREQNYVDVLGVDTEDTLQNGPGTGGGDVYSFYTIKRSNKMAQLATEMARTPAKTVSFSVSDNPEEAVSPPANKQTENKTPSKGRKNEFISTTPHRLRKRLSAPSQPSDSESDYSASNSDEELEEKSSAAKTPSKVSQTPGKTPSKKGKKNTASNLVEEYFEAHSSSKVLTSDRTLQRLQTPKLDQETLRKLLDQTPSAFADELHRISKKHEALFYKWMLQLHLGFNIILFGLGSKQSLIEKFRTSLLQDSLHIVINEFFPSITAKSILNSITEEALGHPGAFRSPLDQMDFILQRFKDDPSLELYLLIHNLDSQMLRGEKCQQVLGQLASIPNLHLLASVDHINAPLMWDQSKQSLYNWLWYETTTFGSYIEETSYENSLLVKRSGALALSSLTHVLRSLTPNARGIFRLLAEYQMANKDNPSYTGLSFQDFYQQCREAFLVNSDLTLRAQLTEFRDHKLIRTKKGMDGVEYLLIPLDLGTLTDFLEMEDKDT

T4: Xmcm3 (Xenopus, UniProt P49739 1-807)
T4 sequence (looked up): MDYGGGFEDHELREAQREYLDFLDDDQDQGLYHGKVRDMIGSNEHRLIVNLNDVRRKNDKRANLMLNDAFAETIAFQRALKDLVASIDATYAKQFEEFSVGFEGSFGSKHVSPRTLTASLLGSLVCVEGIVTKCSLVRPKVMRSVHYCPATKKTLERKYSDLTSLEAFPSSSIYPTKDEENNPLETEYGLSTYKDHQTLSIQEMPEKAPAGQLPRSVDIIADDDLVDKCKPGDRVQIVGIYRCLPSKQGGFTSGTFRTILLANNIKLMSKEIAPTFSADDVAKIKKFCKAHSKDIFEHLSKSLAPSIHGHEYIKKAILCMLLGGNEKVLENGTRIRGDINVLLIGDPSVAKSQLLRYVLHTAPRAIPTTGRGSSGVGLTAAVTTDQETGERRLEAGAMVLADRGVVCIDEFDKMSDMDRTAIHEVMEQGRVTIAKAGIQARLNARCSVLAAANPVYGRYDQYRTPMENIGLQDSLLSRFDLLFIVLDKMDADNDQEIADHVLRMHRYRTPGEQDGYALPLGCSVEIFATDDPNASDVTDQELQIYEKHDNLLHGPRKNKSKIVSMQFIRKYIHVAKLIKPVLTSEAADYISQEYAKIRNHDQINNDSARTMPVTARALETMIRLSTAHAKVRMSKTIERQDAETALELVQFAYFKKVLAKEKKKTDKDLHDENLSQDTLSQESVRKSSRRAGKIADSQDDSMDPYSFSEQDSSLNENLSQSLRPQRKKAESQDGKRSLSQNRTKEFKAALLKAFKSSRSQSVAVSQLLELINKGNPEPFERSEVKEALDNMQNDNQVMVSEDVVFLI


Assays:
[1] = test system: T1, Xenopus Geminin-H, translated in vitro
[2] = test system: T2, geminin^DEL (geminin H with the nine amino acids of the destruction box RRTLKVIQP, 33-41, removed), translated in vitro
Xorc2 = target: T3, Xorc2; assay: co-immunoprecipitation (preliminary experiments)
Xmcm3 = target: T4, Xmcm3; assay: co-immunoprecipitation (preliminary experiments)

binding result (Xorc2) | binding result (Xmcm3) | Molecule | ubiquitin conjugates (ladder on autoradiogram) in a reconstituted ubiquitination reaction [1] | ubiquitin conjugates (ladder on autoradiogram) in a reconstituted ubiquitination reaction [2]
– | – | interphase APC (immunoprecipitated from interphase Xenopus egg extract) | The ladder did not appear ... if the APC was immunoprecipitated from interphase extracts (lane 7) | –
– | – | mitotic anaphase promoting complex (APC) of Xenopus mitotic egg extract | a characteristic ladder of ubiquitin conjugates appeared above the starting material | The ladder did not appear if the destruction box mutant geminin^DEL was used as the substrate
no binding | no binding | geminin (Xenopus; as used in the co-immunoprecipitation experiments) (other) MNTNKKQRLDMEKPTMSIKNYFVDKTNESLAPRRTLKVIQPSASGCLVGRTKEPVKNSTKRKLWNDQLTSKKAKVEVAVDPEHRENKDCSSEAYDLMVKETPTCLYWKEVAEERRKALYEALQENEKLHKEIELKDEEIARLKQENDELMELAGHVQYMANMIERLTGNAPRSLEDLKDLDLEEARFEDEADMAEARIEDETDMARPSNSDQNMDAHTV | – | –

Reference: patent US6548290 (Harvard, dated 2003)
